Measurements published in patent US20200138870A1, “RECREATION OF PANCREATIC NICHE ALLOWS FOR NOVEL METHODS FOR HUMAN, MATURE BETA DERIVATION FROM PLURIPOTENT STEM CELLS” (Baylor College of Medicine, priority 2016, published 2020).

Key:
Format in all cases: cell-based, human
EPs = assay: Proliferation by phospho-histone H3 (pH3) staining after WNT5A treatment
Method: (§1) Cells were incubated with 5% donkey serum (Jackson ImmunoResearch Laboratories) in PBST (PBS+0.1% Triton-X) for 30 min to avoid nonspecific binding of the antibody and to permeabilize the cells. Primary antibodies, diluted in 5% donkey serum in PBST, were then added and incubated at 4° C. overnight with shaking. After primary antibody incubation, cells were washed 3 times with PBST and secondary antibodies conjugated with Alexa-Fluor Dyes (Jackson ImmunoResearch Laboratories) and diluted in 5% donkey serum in PBST were added to the cells for 30 min at RT. Then, cells were thrice washed with PBST and nuclei were stained with Dapi (Roche Diagnostics). For imaging, Leica DMI6000 or confocal Leica TCS SPE was used. Images were initially processed by LAS X software and then further analyzed and quantified using ImageJ software (NIH, W Rasband, http://rsb.info.nih.gov/ij) using cell counter plug-in. Typically, at least 5 randomly selected images were counted per condition.

AP-1 = assay: Dual-pathway multicolor luciferase assay, AP-1 reporter; conditions: 500 ng/ml WNT5A, after 24h
Text: The dual-pathway luciferase reporter vector was generated using the GoldenBraid2.0 Assembly Platform (Sarrion-Perdigones et al., 2011; Sarrion-Perdigones et al., 2013). Briefly, transcriptional units comprising the promoter elements, the CDS of the corresponding luciferase and the bovine growth hormone terminator were first assembled, and then these were latter combined in successive rounds of assembly to build the multigenic vector used in this assay. For the multicolor luciferase assay, H1-derived EPs were first dissociated into 96-well plates using method previously described and incubated overnight to allow cell attachment. […] At the determined harvesting point, culture media was removed and wells were washed with PBS. […] 10 μL of LARII reagent was added with the built-in injectors and after 2 seconds, the total light and the BP filtered light emitted by the FLuc and RedF mixture were measured for 1 second. Finally, 15 μL of Stop & Glo® reagent were injected and after 4 seconds the emitted light by Renilla luciferase was measured. The activity corresponding to FLuc and RedF that were simultaneously measured after the LARII reagent was added were calculated according to the method proposed by Nakayima et al (Nakajima et al., 2005) that is adjusted to this particular assay and explained in FIG. 7D.

JNK = assay: Western blot for phosphorylated JNK and total JNK; conditions: short-term (12h) treatment, 500 ng/ml WNT5A
Method: ISL1-EGFP hESCs were differentiated into EPs and first balanced with basal media (DMEM with 1% BSA and NEAA) for 6h and then treated with 500 ng/ml WNT5A in basal media. After 12h, cell lysates were collected as imilion of EPs were pelleted, PBS washed and resuspended in 250 μl of lysis buffer (10 mM HEPES pH7.5, 10 mM MgCl2, 5 mM KCl, 0.1 mM EDTA pH8, 0.1% TritonX-100, 0.2 mM PMSF, 1 mM DTT, 1 tab of Complete Protease Inhibitor Cocktail (Roche)). Cell lysates were centrifuged 12,000 g at 4° C. for 15 min and their supernatants were collected. BCA assay were performed using Pierce BCA protein assay kit (Thermo) to determine protein concentration. For Western blot, […] of protein were denatured with 4x Laemmeli buffer (40% glycerol, 8% SDS, 240 mM Tris-HCl pH6.8, 5% β-mercaptoethanol, 12.5 mM EDTA, 0.04% bromophenol blue) at 95° C. 3 min and resolved in 8% SDS-PAGE. PVDF membranes (BioRad) were used for transfer and membrane were blocked with 5% BSA in Tris-buffered saline with 1% Tween 20 (TBST) for 1h before applying primary antibody. Membranes were washed thrice for 10 min and anti-rabbit IgG-HRP (GE Life Science) were added for 3h at RT, followed by three washes. HyGLO™ Quick Spray Chemiluminescent HRP Antibody Detection Reagent (Denville Scientific Inc.) was used to detect antigen and the membrane was developed using CL-XPosure Film (Thermo Scientific). […]

hESC-derived EPs = assay: Growth factor treatment of hESC-derived EPs for 3 days, immunofluorescence quantification of marker-positive cells
Method: hESC, ISL1-EGFP Hues8 and H1, were maintained under a feeder-free system on Geltrex (Invitrogen) in TeSR-E8 media (Stemcell Technologies). Cells were passaged at 70-80% confluence using TrypLE (Invitrogen). After dissociation, cells were seeded in TeSR-E8 media+10 μM Y-27632 for 24h. Differentiation was started when cells were 90% confluent. The following media and growth factors/small molecules (see also Table 3) were used: Day1: MCDB-131 media with 0.1% BSA+10 mM glucose+ActivinA and CHIR99021. Day2-3: MCDB-131 media+0.1% BSA+10 mM glucose+ActivinA. Day4-5: MCDB-131+0.1% BSA, 10 mM glucose, VitC+KGF. Day6-9: MCDB-131 2% BSA+5.5 mM glucose+Vit.C+ITS (Invitrogen)+ActivinA+KGF+RA+SANT-1+Noggin. Day10-12: MCDB-131+2% BSA+5.5 mM glucose+VitC+ITS+SANT-1+Noggin+PdBU. Day13-15: MCDB-131+2% BSA+5.5 mM glucose+VitC+ITS+Noggin+AlK5i. EPs were dissociated and seeded as 25,000 cells/well on Geltrex-coated 96-well plates in DMEM media (Invitrogen) with B27 Supplement (Thermo Fisher Scientific), later called B27 media, supplemented with 10 µM Y-27632 for 24h. Growth factors (Table 3) were added to B27 media, at two concentrations, and tested on EPs for 3 days. After 3 days, cells were PBS washed, fixed with 4% PFA/PBS for 20 min at room temperature (RT), washed twice with PBS and stained.
as §1

B1: WNT5A: secreted growth factor from the human pancreatic niche (R&D), used at 100 or 500 ng/ml (protein)
chain: IIGAQPLCSQLAGLSQGQKKLCHLYQDHMQYIGEGAKTGIKECQYQFRHRRWNCSTVDNTSVFGRVMQIGSRETAFTYAVSAAGVVNAMSRACREGELSTCGCSRAARPKDLPRDWLWGGCGDNIDYGYRFAKEFVDARERERIHAKGSYESARILMNLHNNEAGRRTVYNLADVACKCHGVSGSCSLKTCWLQLADFRKVGDALKEKYDSAAAMRLNSRGKLVQVNSRFNSPTTQDLVYIDPSPDYCVRNESTGSLGTQGRLCNKTSEGMDGCELMCCGRGYDQFKTVQTERCHCKFHWCCYVKCKKCTEIVDQFVCK
For B1, the “effect in EP proliferation (in words)” value (EPs; 3 days of WNT5A treatment) was “modest effect”, the “pH3+ cells” value (EPs; 3 days of WNT5A treatment (1% in control)) was 2% and the “AP-1 activity (in words)” value (AP-1) was “activates”. The “JNK expression and phosphorylation (in words)” value (JNK) was “increased”, the “number of INS+ cells” value (hESC-derived EPs; 100 ng/ml of WNT5A (30% in B27)) was 39% and the “number of INS+ cells” value (hESC-derived EPs; 500 ng/ml WNT5A (30% in B27)) was 60%. The “decrease in the number of GCG+ cells” value (hESC-derived EPs; 3-day EP treatment, vs untreated control) was 3 fold, the “average increase in number of cells positive for all test markers” value (hESC-derived EPs; 3 days treatment of EPs) was 5 fold and the “numbers of ISL1-eGFP, CHGA+, INS+ and C-peptide+ cells over untreated controls (in words)” value (hESC-derived EPs; 3 days treatment of EPs) was “increased”. The “number of INS+ cells among all factors and combinations tested (in words)” value (hESC-derived EPs; WNT5A in different combinations at 500 ng/ml, 3 days) was “consistently and most significantly increased” and the “fold increase in number of ins+ cell generate from hESCs” value (hESC-derived EPs; growth factors alone or in combination) was 6 fold.
